Assay [1] concerns the target PYY_helicar (helicar motif engineered PYY). In words: SEC-MALLS.
For assay [2] the target is unchanged. In words: column binding [Kd]; method not stated.
Assay [3] has as its target T1, Ac-PYY(PEG3-Dig) (N-terminal acetyl; Lys 2 side chain carries PEG3-digoxigenin-3-carboxymethyl; Pqa at position 3; N-methyl-Arg at position 14; C-terminal amide).
T1 construct: also called DIG-PYY; Digoxigenin-PYY(3-36) conjugate
T1 peptide: IKXRHYLNWVTRQXY
The assay is described as follows: size exclusion chromatography and SEC-MALLS; binding through digoxigenin. A general note: In gel filtration, larger molecules generally elute earlier.

PYY_helicar (helicar motif engineered PYY), sequence (peptide, as listed by the source, change not shown): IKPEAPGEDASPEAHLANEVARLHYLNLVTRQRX

B1: anti-helicar motif amino acid sequence antibody (0019) (antibody, V domains shown)
V domain 1: QAVVTQEPSLTVSPGGTVTLTCGSSTGAVTTSNYASWVQQKPGQAFTGLIGGTNNRAPWTPARFSGSLLGGKAALTLSGAQPEDEAEYYCALWYSNHWVFGGGTKLTVL
V domain 2: DAVVTQESALTTSPGETVTLTCRSSTGAVTTSNYASWVQEKPDHLFTGLIGGTNNRAPGVPARFSGSLIGDKAALTITGAQTEDEAIYFCALWYSNHWVFGGGTKLTVL
In assay [1], B1 came in with a stoichiometry of the complex (peptides on one bivalent antibody) (peptides per antibody) of 1.6. The Kd (as a rule, the free concentration of one partner at which half of the binding sites on the other are occupied at equilibrium, for simple one-to-one binding) in assay [2] was 12 nM.

B2: murine anti-digoxigenin antibody (hybridoma-derived) (antibody, mouse IgG1, V domains shown)
VH: EVQLVESGGGLVKPGGSLKLSCAVSGFTFSDYAMSWIRQTPENRLEWVASINIGATYAYYPDSVKGRFTISRDNAKNTLFLQMSSLGSEDTAMYYCARPGSPYEYDKAYYSMAYWGPGTSVTVSS
VL: DVQMTQSTSSLSASLGDRVTISCRASQDIKNYLNWYQQKPGGTVKLLIYYSSTLLSGVPSRFSGRGSGTDFSLTITNLEREDIATYFCQQSITLPPTFGGGTKLEIK
B2: the binding result in assay [3] was “binds”.
